Three molecules from PMC7736253 (Nature plants, 2020) can be followed below.

For series [1], the target named is Rubisco holoenzyme (native Rubisco purified from Chlamydomonas cells) (Chlamydomonas reinhardtii (endogenous in strain cMJ030)) (UniProt P00877). The experiment in a line: cryo-EM structure.
For series [2] the target is unchanged. In words: SPR.
The series “cryo-EM structure” deals with the molecule itself. The experiment in a line: cryo-EM structure.

Regarding EPYC1_(49-72) peptide, the stoichiometry N in series [1] is below 8. Also, the Kd in series [2] is 3 mM. In turn, EPYC1_(106-135) peptide had a stoichiometry N in series [1] below 8.

B1: Rubisco large subunit (in the native holoenzyme) (natural protein, UniProt P00877 3-475, looked up)
chain: PQTETKAGAGFKAGVKDYRLTYYTPDYVVRDTDILAAFRMTPQLGVPPEECGAAVAAESSTGTWTTVWTDGLTSLDRYKGRCYDIEPVPGEDNQYIAYVAYPIDLFEEGSVTNMFTSIVGNVFGFKALRALRLEDLRIPPAYVKTFVGPPHGIQVERDKLNKYGRGLLGCTIKPKLGLSAKNYGRAVYECLRGGLDFTKDDENVNSQPFMRWRDRFLFVAEAIYKAQAETGEVKGHYLNATAGTCEEMMKRAVCAKELGVPIIMHDYLTGGFTANTSLAIYCRDNGLLLHIHRAMHAVIDRQRNHGIHFRVLAKALRMSGGDHLHSGTVVGKLEGEREVTLGFVDLMRDDYVEKDRSRGIYFTQDWCSMPGVMPVASGGIHVWHMPALVEIFGDDACLQFGGGTLGHPWGNAPGAAANRVALEACTQARNEGRDLAREGGDVIRSACKWSPELAAACEVWKEIKFEFDTIDKL
Regarding B1, the “stoichiometry N” value in “cryo-EM structure” was determined as 8.
